According to article PMC7961048, “Hierarchized phosphotarget binding by the seven human 14-3-3 isoforms” (Nature Communications, 2021):

Columns and labels:
[1] = biological target: 14-3-3β (UniProt P31946); test: competitive FP, FITC-HSPB6 phosphopeptide tracer; settings: reference: unphosphorylated 18E6 peptide; sites T156
[2] = biological target: 14-3-3γ (UniProt P61981); test: competitive FP, FITC-HSPB6 phosphopeptide tracer; settings: reference: unphosphorylated 18E6 peptide; sites T156
[3] = biological target: 14-3-3ε (UniProt P62258); test: competitive FP, FITC-HSPB6 phosphopeptide tracer; settings: reference: unphosphorylated 18E6 peptide; sites T156
[4] = biological target: 14-3-3ζ (UniProt P63104); test: competitive FP, FITC-HSPB6 phosphopeptide tracer; settings: reference: unphosphorylated 18E6 peptide; sites T156
[5] = biological target: 14-3-3η (UniProt Q04917); test: competitive FP, FITC-HSPB6 phosphopeptide tracer; settings: reference: unphosphorylated 18E6 peptide; sites T156
[6] = biological target: 14-3-3σ (UniProt P31947); test: competitive FP, FITC-HSPB6 phosphopeptide tracer; settings: reference: unphosphorylated 18E6 peptide; sites T156
[7] = biological target: 14-3-3τ (UniProt P27348); test: competitive FP, FITC-HSPB6 phosphopeptide tracer; settings: reference: unphosphorylated 18E6 peptide; sites T156
[8] = biological target: phosphorylated 14-3-3ζ-18E6 chimera (14-3-3ζ∆C-GGGG-18E6 PBM) (human | human papillomavirus type 18) (UniProt P63104); test: crystal structure

Substance | binding against the reference [1] | binding against the reference [2] | binding against the reference [3] | binding against the reference [4] | binding against the reference [5] | binding against the reference [6] | binding against the reference [7] | stoichiometry N [8]
HPV18 E6 (18E6) (from UniProt P06463) p18E6 peptide | gained | gained | gained | gained | gained | gained | gained | 
phosphorylated 14-3-3ζ-18E6 chimera (14-3-3ζ∆C-GGGG-18E6 PBM) (from UniProt P63104 1-229) |  |  |  |  |  |  |  | 2
